The values that follow are results of earlier work, collected in paper PMC1297595.

pKd: −log10 of the molar value.

This data set has as its target CD26 (Homo sapiens) (UniProt P27487).
Sequence of UniProt P27487 (P27487 39-766): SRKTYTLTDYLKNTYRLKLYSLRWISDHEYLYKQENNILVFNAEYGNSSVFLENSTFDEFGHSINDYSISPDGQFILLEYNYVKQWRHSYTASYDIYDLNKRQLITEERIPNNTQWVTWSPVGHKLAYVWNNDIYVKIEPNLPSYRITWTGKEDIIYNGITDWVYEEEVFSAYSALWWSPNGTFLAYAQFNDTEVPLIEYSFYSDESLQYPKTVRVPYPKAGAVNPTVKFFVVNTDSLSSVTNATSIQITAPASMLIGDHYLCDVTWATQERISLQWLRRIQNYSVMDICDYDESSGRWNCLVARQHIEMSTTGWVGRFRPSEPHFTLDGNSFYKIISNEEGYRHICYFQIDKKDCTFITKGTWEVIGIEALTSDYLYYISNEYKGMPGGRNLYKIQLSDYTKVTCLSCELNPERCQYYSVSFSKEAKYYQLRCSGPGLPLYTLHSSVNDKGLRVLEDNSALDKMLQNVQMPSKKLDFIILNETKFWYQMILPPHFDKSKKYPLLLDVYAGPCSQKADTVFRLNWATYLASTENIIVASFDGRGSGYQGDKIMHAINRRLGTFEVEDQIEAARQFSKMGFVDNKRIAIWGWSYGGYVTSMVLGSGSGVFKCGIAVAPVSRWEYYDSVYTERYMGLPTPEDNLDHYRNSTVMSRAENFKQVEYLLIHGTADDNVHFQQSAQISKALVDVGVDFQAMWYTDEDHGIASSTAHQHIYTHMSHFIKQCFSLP

On to ADA (from UniProt P00813), for which the negative logarithm of the Kd (pKd) is 7.19.
